According to US20230295313A1 (published 2023):

Tests used:
[1] = target: T1, human IL1RAP extracellular domain protein (GK002, HuIL1Racp-ECD-His6) (human, UniProt Q9NPH3 21-367); assay: SPR (Biacore T200), mAb captured by anti-Fc IgG, His-tagged human IL1RAP ECD as analyte
T1 construct: also called His-tagged human IL-1RAP extracellular domain protein; HuIL1RAP-ECD-His6 (GK002)
T1 sequence: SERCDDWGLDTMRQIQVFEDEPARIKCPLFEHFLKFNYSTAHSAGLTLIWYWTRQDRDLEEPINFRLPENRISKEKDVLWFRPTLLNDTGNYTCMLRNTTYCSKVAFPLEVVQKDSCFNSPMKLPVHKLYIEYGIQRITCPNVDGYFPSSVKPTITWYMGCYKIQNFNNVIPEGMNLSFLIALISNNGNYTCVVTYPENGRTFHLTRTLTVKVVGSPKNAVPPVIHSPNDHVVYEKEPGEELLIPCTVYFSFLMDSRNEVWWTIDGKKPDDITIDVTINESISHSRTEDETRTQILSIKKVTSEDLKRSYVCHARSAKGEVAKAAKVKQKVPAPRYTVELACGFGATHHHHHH

[2] = target: T2, human IL1RAP on the cell surface (HEK293/IL1RAP cells; IL1RAP-expressing OCI-AML-1 cells) (human, UniProt Q9NPH3 21-570); assay: cell-based or functional assay
T2 sequence: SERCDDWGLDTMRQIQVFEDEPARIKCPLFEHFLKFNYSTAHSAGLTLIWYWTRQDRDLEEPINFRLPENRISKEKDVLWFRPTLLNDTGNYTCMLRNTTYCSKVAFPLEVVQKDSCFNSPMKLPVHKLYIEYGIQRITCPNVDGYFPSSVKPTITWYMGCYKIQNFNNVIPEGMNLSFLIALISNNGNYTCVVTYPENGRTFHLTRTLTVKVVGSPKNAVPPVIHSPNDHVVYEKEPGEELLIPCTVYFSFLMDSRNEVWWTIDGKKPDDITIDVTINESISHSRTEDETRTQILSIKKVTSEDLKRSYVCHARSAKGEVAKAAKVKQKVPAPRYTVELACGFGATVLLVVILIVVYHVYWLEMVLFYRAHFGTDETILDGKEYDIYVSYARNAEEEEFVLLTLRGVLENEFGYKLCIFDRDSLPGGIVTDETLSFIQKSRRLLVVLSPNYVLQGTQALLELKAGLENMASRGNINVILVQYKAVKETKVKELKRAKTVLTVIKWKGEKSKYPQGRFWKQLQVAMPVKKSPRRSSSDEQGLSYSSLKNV

[3] = target: T3, Soluble Human IL1RAP (sIL1RAP) (human, UniProt Q9NPH3 21-367); assay: SPR, antibody captured via Protein A on CM5 chip, 25° C., 1:1 fit, average of 3 runs
[4] = target: T4, Human IL1RAP ECD (human, UniProt Q9NPH3 21-367); assay: as above
T4 construct: Analyte in the GSK3903371A SPR study; also called human IL1RAP extracellular domain (ECD); recombinant human IL1RAP ECD
T4 sequence: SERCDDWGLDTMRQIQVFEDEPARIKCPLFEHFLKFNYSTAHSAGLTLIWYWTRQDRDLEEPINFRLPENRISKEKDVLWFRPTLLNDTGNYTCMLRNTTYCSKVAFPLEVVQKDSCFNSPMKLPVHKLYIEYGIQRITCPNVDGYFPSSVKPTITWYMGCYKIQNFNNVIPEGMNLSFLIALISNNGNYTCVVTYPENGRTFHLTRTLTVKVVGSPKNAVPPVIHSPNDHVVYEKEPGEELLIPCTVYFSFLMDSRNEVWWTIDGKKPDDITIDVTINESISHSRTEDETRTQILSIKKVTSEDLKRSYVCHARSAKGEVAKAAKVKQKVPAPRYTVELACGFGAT

[5] = target: T5, Cyno IL1RAP ECD (cynomolgus monkey, UniProt A0A2K5X5J5 21-367); assay: as above
T5 construct: extracellular domain; Analyte in the GSK3903371A SPR study; also called cynomolgus monkey IL1RAP ECD
T5 sequence: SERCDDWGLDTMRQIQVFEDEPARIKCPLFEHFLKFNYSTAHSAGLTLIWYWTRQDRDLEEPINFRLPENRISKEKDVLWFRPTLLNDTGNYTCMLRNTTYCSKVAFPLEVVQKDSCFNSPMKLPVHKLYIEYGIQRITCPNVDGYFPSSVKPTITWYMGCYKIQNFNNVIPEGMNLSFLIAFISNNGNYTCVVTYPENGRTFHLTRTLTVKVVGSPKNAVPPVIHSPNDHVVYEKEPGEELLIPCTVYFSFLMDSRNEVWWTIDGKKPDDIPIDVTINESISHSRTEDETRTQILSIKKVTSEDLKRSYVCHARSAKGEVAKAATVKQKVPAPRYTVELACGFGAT

[6] = target: T3, Soluble Human IL1RAP (sIL1RAP); assay: SPR, antibody captured via Protein A on CM5 chip, 37° C., 1:1 fit, average of 2 runs
[7] = target: T4, Human IL1RAP ECD; assay: as above
[8] = target: T5, Cyno IL1RAP ECD; assay: as above
[9] = target: T2, human IL1RAP on the cell surface …; assay: cell-based or functional assay; remark: listed apart in the source
[10] = target: T6, cyno IL1RAP (GK017, CynoIL1Racp-ECD-His6) (cyno, UniProt A0A2K5X5J5 21-367); assay: SPR (Biacore T200), mAb captured by anti-human IgG Fc on CM5, ECD-His6 as analyte, 1:1 fit
T6 construct: extracellular domain; also called CynoIL1RAP-ECD-His6 (GK017); cyno IL1RAP-ECD-His6 protein
T6 sequence: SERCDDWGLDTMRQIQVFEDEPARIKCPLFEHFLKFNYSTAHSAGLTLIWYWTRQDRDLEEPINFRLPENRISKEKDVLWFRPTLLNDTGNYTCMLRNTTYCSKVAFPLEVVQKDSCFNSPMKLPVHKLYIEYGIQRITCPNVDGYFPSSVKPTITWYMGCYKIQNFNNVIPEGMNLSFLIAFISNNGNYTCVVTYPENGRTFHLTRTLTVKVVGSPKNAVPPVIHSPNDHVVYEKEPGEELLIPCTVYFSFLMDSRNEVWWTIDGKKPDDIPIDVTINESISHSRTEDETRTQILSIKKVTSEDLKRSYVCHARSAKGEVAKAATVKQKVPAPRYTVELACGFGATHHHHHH

[11] = target: T1, human IL1RAP extracellular domain …; assay: as above

B1: murine mAb001 (antibody, V domains shown)
VH: QVQLQQPGAELVRPGSSVKLSCKASGYTFTSYWMDWVKQRPGQGLEWIGNIYPSDSKTHYNQKFKDKATLTVDKSSSTAYMQLSSLTSEDSAVYYCARDYYGSIGMDYWGQGTSVTVSS
VL: DIQMTQSPSSLSASLGERVSLTCRASQEISGYLSWLQQKPDGTIKRLIYAASTLDSGVPKRFSGSRSGSDYSLTISSLESEDFADYYCLQYASYPWTFGGGTKLEIK
notes: Murine anti-human IL1RAP mAb
Kd [1]: 4.97 nM
koff [1]: 0.000282 s⁻¹
kon [1]: 56700 M⁻¹ s⁻¹

B2: murine mAb048 (antibody, V domains shown)
VH: QVQLQQPGADLVKPGASVKLSCKAYGYTFFSYWMHWVRQRPGQGLEWIGMIHPNSGTTNNNEKFKSKATLTVDKSFSTAYMQLSSLTSEDSAVYYCARGYSNYDFDYWGQGTILTVSS
VL: DIKMTQFPSSMYASLGERVTITCKASQDINTYLIWIQQKPGKSPKTLIYRANRLADGVPSRFSGSGSGQDSSLTISSLEHEDMGIYYCLQYDEFPYTFGGGTKLEIK
notes: Murine anti-human IL1RAP mAb
Kd [1]: 0.357 nM
koff [1]: 4.48e-05 s⁻¹
kon [1]: 125000 M⁻¹ s⁻¹

B3: murine mAb117 (antibody, V domains shown)
VH: QAYLQQSGAELVRPGASVKMSCKASGYTFTSYNMHWVKQSPRQGLEWVGVFYLGNGDTSYNEKFKGKATLTVDKSSSTAYMQLSSLTSEDSAVYFCARPGGYANWYFDVWGTGTTVTVSS
VL: DIVMTQSQKFMSTSVGDWVSVTCKASQNVGTEVSWYQQKPGQSPNTLIYSASYRHSGVPDRFTGSGSGTEFTLTITNVQSEDLADYFCQQYNSFPLTFGAGTKLDLK
notes: Murine anti-human IL1RAP mAb
Kd [1]: 0.193 nM
koff [1]: 4.28e-05 s⁻¹
kon [1]: 222000 M⁻¹ s⁻¹

B4: mAb063 (antibody, V domains shown)
VH: EVQLQQSGPELVKPGASVKISCKASGYTFTDYYMNWVKQSHGKSLEWIGHINPNSGSTTYTEKFKDKATLTVDKSSSTAYMELRSLTSDDSAVYYCVRRIGKNWHCDVWGTGTTVTVSS
VL: DIVLTQSPASLAVSLGQRATISCRASESVNFHGTHLMHWYQQKPGQAPKLLIYAASNLDSGVPARFSGSGSETDFTLNIHPVEEEDAATYFCQQSIEDPFTFGSGTYLEIK
notes: Murine anti-human IL1RAP mAb; also called murine mAb063
Kd [1]: 0.0496 nM
koff [1]: 2.12e-05 s⁻¹
kon [1]: 426000 M⁻¹ s⁻¹

B5: GSK3903371A (antibody, human IgG1, kappa, V domains shown)
VH: EVQLVQSGAEVKKPGSSVKVSCKASGYTFNSYWIHWVRQAPGQGLEWMGYNNPTSGYSEYNQKFTDRVTITADKSTSTAYMELSSLRSEDTAVYYCAREYGDLFAYWGQGTLVTVSS
VL: AIQMTQSPSSLSASVGDRVTITCKASENVGYSVSWFQQKPGKSPKLLIYGASNRYTGVPSRFSGSGSATDFTLTISSLQPEDFATYHCGQIYIYPYTFGGGTKVEIKR
modifications: heavy chain constant region afucosylated (expressed in FUT8-knockout POTELLIGENT CHO cells)
notes: Humanized IgG1 kappa; also called afucosylated anti-IL1RAP mAb GSK3903371A
CDC EC50, HEK293/IL1RAP target cells, experiment 1 [2]: 6.16 nM
CDC EC50, HEK293/IL1RAP target cells, experiment 2 [2]: 5.9 nM
Kd [3]: 2.03 nM
koff [3]: 0.000199 s⁻¹
Kd [4]: 1.61 nM
koff [4]: 0.000268 s⁻¹
Kd [5]: 1.53 nM
koff [5]: 0.000226 s⁻¹
Kd [6]: 3.58 nM
koff [6]: 0.00101 s⁻¹
Kd [7]: 2.54 nM
koff [7]: 0.000942 s⁻¹
Kd [8]: 3.47 nM
koff [8]: 0.000946 s⁻¹
ADCC EC50, PBMC effector cells, OCI-AML-1 target cells, experiment 1 [9]: 63.3 pM
ADCC EC50, PBMC effector cells, OCI-AML-1 target cells, experiment 2 [9]: 58.9 pM
ADCC EC50, PBMC effector cells, OCI-AML-1 target cells, experiment 3 [9]: 70.5 pM
ADCC EC50, geometric mean (n=3), OCI-AML-1 target cells [9]: 64.1 pM

B6: mAb067-12 (humanized) (antibody, human IgG1, kappa, V domains shown)
VH: EVQLVQSGAEVKKPGSSVKVSCKASGYTFNSYWIHWVRQAPGQGLEWMGYNNPTSGYSEYNQKFTDRVTITADKSTSTAYMELSSLRSEDTAVYYCAREYGDLFAYWGQGTLVTVSS
VL: AIQMTQSPSSLSASVGDRVTITCKASENVGYSVSWFQQKPGKSPKLLIYGASNRYTGVPSRFSGSGSATDFTLTISSLQPEDFATYHCGQIYIYPYTFGGGTKVEIKR
notes: Fucosylated humanized IgG1; same chains as GSK3903371A; also called HumAb67-12; HumAb067-12
CDC EC50, HEK293/IL1RAP target cells, experiment 1 [2]: 5.13 nM
CDC EC50, HEK293/IL1RAP target cells, experiment 2 [2]: 4.7 nM
Kd [10]: 0.899 nM
koff [10]: 0.00015 s⁻¹
kon [10]: 167000 M⁻¹ s⁻¹
Kd [11]: 0.953 nM
koff [11]: 0.000161 s⁻¹
kon [11]: 169000 M⁻¹ s⁻¹

B7: murine mAb067 (antibody, V domains shown)
VH: QVKLHQSGAELAKPGASVKMSCKASGYTFNSYWIHWVKQRPGQGLEWIGYNNPTSGYSEYNQKFTDKATLSADKSSSTAYMQLSSLTSEDSAVYYCVREYGDLFAYWGQGTLVTVSA
VL: NIVMTQSPKSMSMSVGERVTLSCKASENVGYSVSWFQQKPDQSPKLLIYGASNRYTGVPDRFTGSGSATDFTLTISTVQAEDLADYHCGQIYIYPYTFGGGTKLEIK
notes: Murine anti-human IL1RAP mAb
Kd [1]: 0.3 nM
koff [1]: 0.000102 s⁻¹
kon [1]: 340000 M⁻¹ s⁻¹
